# Assay results taken from the nanobody polyreactivity screen of Harvey et al. (2022).
# Experiment: yeast display, Sf9 membrane polyspecificity reagent, FACS + sequencing; frameworks hold sequencing errors
# Method in brief: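 A nanobody's polyreactivity label depends on the gate it was sorted from. Yeast display cells were stained with 10% biotinylated, detergent-solubilized Sf9 membrane reagent for 1 hour at 4 °C, enriched on streptavidin microbeads and sorted by FACS. The low and high (top ~1%) gates were set on anti-HA fluorescence for expression and streptavidin fluorescence for reagent binding.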
row,Sequence,polyreactivity (PSR sort gate)
1,QVQLVESGGGLVQAGGSLRLSCPASGYIFYRNAMVWYRQAPGKERELVAAITYTGGRTYYADSVKGRFTISRDNAKNTVYLQMNSLNPEDTAVYYCNADGRVFVVRPYYDYEYWGQGTQVTVSS,low polyreactivity
2,QVQLVESGGGLVQAGGSLRLSCSASGFIFRYNAMGWYRQAPGKEREFVAAISQGGASTYYADSVKGRFTISRDNAKNTVYLQMNSLKPEDTAVYYCNAVVDTSKYTDYYWGQGTQVTVSS,low polyreactivity
3,QVQLVESGGGLVQAGGSLRLSCSASGFIFWYNAMGWYRQAPGKERELVAAISWSGGRTYYADSVKGRFTISRDNAKNTVYLQMNSLKPEDSAVYYCAAKVPRSSRSYGYWGQGTQVTVSS,high polyreactivity
4,QVQLVESGGGLVQAGGSLRLSCSASGFIFWYYAMGWYRQAPGKERELVAAISSGGSTNYADSVKGRFAISRDNAKNTVYLQLNSLIPVDTAVYYCATSSIWGSARVRWVTYYYWGQGTQVTVSS,low polyreactivity
5,QVQLVESGGGLVQAGGSLRLSCSASGFIFYSYAMGWSRPAPGKEREFVAAISRSGGITYYADSVKGRFTISRDNAKNTVYLQMNSLKPEDTAVYYCAKVGRAVSSIKDMDSWGQGTQVTVSS,high polyreactivity
6,QVQLVESGGGLVQAGGSLRLSCSASGFTFRSYAMGWYRQAPGEEREFVAAISRRGDSTYYADSVKGRFTISRDNAKNTVYLQMNSLKPEDTAVYYCAKYGIASRYSRFDSWGQGTQVTVSS,high polyreactivity
7,QVQLVESGGGLVQAGGSLRLSCSASGFTFRTYAMGWYRQAPGKETELVAAISRDGSSTYYADSVKGRFTISRDNAKNTVYLQLKSLKPEDTAVYYCAARIIRFYTSADKLVTSRYYYWGQGTQVTVSS,high polyreactivity
8,QVQLVESGGGLVQAGGSLRLSCSASGGIFSAYAMGWYRQSPGKERELVAAISRTGGSTYYADSVKGRFTISRDNAKNTVYLQMNSLKPEDTAVYYCNAVYRRYPEFDYWGQGTQVTVSS,high polyreactivity
9,QVQLVESGGGLVQAGGSLRLSCSASGHIFRTYAMGWYRQAPWKERELVAGITPNGDTTYYADSVKGRFTISRDHAKITVYLQMNSLKPEDTAVYYCDAQYSQRPADRYNSWGQGTQVTVSS,low polyreactivity
10,QVQLVESGGGLVQAGGSLRLSCSASGITFGTYAMGWYRQAPGKERELVASITYGGTNTYYADSVKGRFTISRDNAKNTVCLQMNSLKPEDTAVYYCNADPAVSRGSIATDDYDYWVQGTQVTVSS,low polyreactivity
11,QVQLVESGGGLVQAGGSLRLSCSASGITFLANAMAWYRPATGKERELVATITSRGASSYYADSVKVRFTISRDNAKNTVYLQMNSLKPEDTAVYYCAATVRRRYERYNDWAQGTQVTVSS,high polyreactivity
12,QVQLVESGGGLVQAGGSLRLSCSASGITFNANAMGWYRQATGKERELVAAISLSGGRTYYADSVKGRFTISRDNAKNTVYLQMNSLKPEDTAVYYCKVLGNYYGKFDYWGQGTQVTVSS,high polyreactivity
13,QVQLVESGGGLVQAGGSLRLSCSASGITFWYNAMEWYRQAPGKERELVAAISRSAGSTYYADSVKGRFTISRDNAKNTVYLQMNSLKPEDTAVYYCAAKTPGRYYYWGQGTQVTVSS,high polyreactivity
14,QVQLVESGGGLVQAGGSLRLSCSASGLTLKRYAMGWYRQAPGQERELVAAISKSGGSTYYADSVKGRFTISRDNAKNTVYLQMNSLKPEDTAVYYCAADSYNLWDDYWGQGTQVTVSS,low polyreactivity
15,QVQLVESGGGLVQAGGSLRLSCSASGRIFRYNGKGWYRQAHGKERELVAVITHRSGTTSYADSVKGRFTISRDNAKNTVYLQMNSLKPEDTAVYYCARGYYKPSVGKSKRVGGNYLGQGTQVTVSS,high polyreactivity
16,QVQLVESGGGLVQAGGSLRLSCSASGRTFVRNAMGWYRQAPGKERELVAAISSIGDSTYYADSVKGRFTISRDNAKNTVYLQMNSLKPEDTAVYYCNARGYVYYRMGYWGQGTQVTVSS,low polyreactivity

row,Sequence,polyreactivity (PSR sort gate)
1,QVQLVESGGGLVQAGGSLRLSCSASGSIFGSYAMGGYRQEPGNERELVAAISWRGGNTYYADSVKGRFTISRDNAKNTVYLQMNSLSPEDTAVYYCAAVAYSYGSYRRYYYWGLGTQVTVSS,high polyreactivity
2,QVQLVESGGGLVQAGGSLRLSCSASGSIFPAYAMGWYRQAPGKERELVASITGSGGSTYYADSVKGRFTISRDNAKNTVYLQMNSLKPEDTAVYYCNARYYVYSATVDRYYHFYYCGQGTQVTVSS,high polyreactivity
3,QVQLVESGGGLVQAGGSLRLSCSASGSIFSYYAMGWYRQAPGKERELVAAISRSGGSTYYADSVKGRFTISRDNAKNTVYLQMNSLKPEDTAVYYCAATRIHYPSYDYWGQGTQVTVSS,high polyreactivity
4,QVQLVESGGGLVQAGGSLRLSCSASGSIFVGYAIGWYRQAPVKEMELDASISSGDDTYADSVKGRFTISRDNAKNSVYLQMNSLKPEDTAVYYCAKDSISVDCAYDYWVQGTQVTVSS,low polyreactivity
5,QVQLVESGGGLVQAGGSLRLSCSASGSTFDGNAMVWYRQAPGKERELVAAITQRASNTYYADSVKGRFTISRDNAKNTVYLQMNSLKPEDTAVYYCNADFYVTSAEFYYWGQGSQVTVSS,low polyreactivity
6,QVQLVESGGGLVQAGGSLRLSCSASGSTFTYYAMGWYRQAPVKERELVADIDFSGTSTYYADSVKGRFTVSRDNAKNTVYLQMNSLKPEDTAVYYCATDDYNWFDYDYWGQGTHVTVSS,low polyreactivity
7,QVQLVESGGGLVQAGGSLRLSCSASGSTFYRYAMGWYRQAPGKERELVATITSGGSTHYADSVKGRFTISRDNAKNTVYLQMNSLKPEDTAVYYAATTSDWYTTINVVYRYYYWGQGTQVTVSS,high polyreactivity
8,QVQLVESGGGLVQAGGSLRLSCSASGSTFYVYAMGWYRQAPGKERELVAAIDWSDGSTYYADSVKGRFTISRDNAKNTVYLQMNSLKPEDTAVYYCAADVGGGVDYVDYYYWGQGTQVTVSS,high polyreactivity
9,QVQLVESGGGLVQAGGSLRLSCSASGSTFYYNAMGWYRQAPGKERELVARISRSGGSTYADSVKGRFTISRDNAKNTVYLQMNSLKPEDTAVYYCNAIGYTGPVAYPEYDYWGQGTQVTVSS,low polyreactivity
10,QVQLVESGGGLVQAGGSLRLSCSASGSTSFYNAIGWYRQAPGKERELVAAISWSTGSTYYADSVKGRFTISRDNAKNTVYLQMTSLKPEDTAVYYCAAETGKNVDFVWVLAYPRLDYWGQGTQVTVSS,low polyreactivity
11,QVQLVESGGGLVQAGGSLRLSCSASGYIFLRNAMGWYRQAPGKERALVAAIRRTGGSTYYADSVKGRFTISRDNSKNTVYLQMTSLKPEDTAVYYCDKRSYTGYEYWGQGTQVTVSS,low polyreactivity
12,QVQLVESGGGLVQAGGSLRLSCSAYGRIFRGYAMGGYRQAPGKERELVASISGGDSTYADSVQGRFTISRDNAKNTVYLQMNSLKPEDTAVYYCADDNEWPRYDYWGQGTQVTVSS,low polyreactivity
13,QVQLVESGGGLVQAGGSLRLSCSAYGSTLGYYAMGWYRQAPGKERELVAAIRYSDGNTYYADSVKGRFTISRDNAKNTVYLQMNSLKPEDTAVYYCAADGGYYGRDYWGQGTQVTVSS,high polyreactivity
14,QVQLVESGGGLVQAGGSLRLSCSAYGYTFSHYAMGWYRQAPGKERELVAGITWSGGSTYYADSVKGRYTISRDNAKNTVYLQMNSLKPEDTSVYYCAAKYYWYYSYSGIPLFDYWGQGTQVTVSS,low polyreactivity
15,QVQLVESGGGLVQAGGSLRLSCSSSGLIFRRNAMGWYRQAPGKERELVAVIDRGGRTNYADSVKGRFTISRDNAKNTVYLQMNSLKPEDTAVYYCDKRYASTSGYWGQGTQVTVSS,high polyreactivity
